From patent US10894811B2, “Peptide inhibitors of calcium channels” (The University of North Carolina at Chapel Hill, priority 2016, dated 2021)
“Also recorded” adds a separate entry of the source.

Columns and labels:
Orai1 [1] = target: T1, Orai1 (Homo sapiens, UniProt Q96D31); assay: Surface biotinylation / immunoblot of plasma membrane Orai1; format: cell-based; conditions: ASMC, after 4 h of SPLUNC1 exposure
Protocol: Surface biotinylation: hASMCs were treated with or without SPLUNC1 for 4 h. Cells were then washed with prechilled PBS^++ (phosphate buffered saline supplemented with 1 mM CaCl2 and 1 mM MgCl2), and then labeled with 0.5 mg/ml sulfo-NHS-biotin (Thermo) in borate buffer (85 mM NaCl, 4 mM KCl, 15 mM Na2B4O7, pH 9.0) while tumbling gently for 30 min on ice. hASMCs were incubated in PBS^++ buffer supplemented with 10% FBS for 20 min at 4° C. to quench free biotin. Cells were washed again three times with chilled PBS^++ and proteins were extracted as previously using lysis buffer (0.4% sodium deoxycholate, 1% NP-40, 50 mM EGTA, 10 mM Tris-Cl, pH 7.4) supplemented with 1×PIC. Total inputs were taken from whole cell samples representing 4% of total protein. Solubilized proteins were incubated with 100 μl of neutravidin beads (Pierce) overnight while rotating at 4° C. Samples were washed three times with lysis buffer. Bead-bound proteins were then eluted and SDS-polyacrylamide gels, and subjected to immunoblot analysis.

TRPC3 = target: T2, TRPC3 (Homo sapiens, UniProt Q13507); assay: Co-immunoprecipitation in HEK293T cell lysates (V5-SPLUNC1 / Myc-TRPC3); format: binding; conditions: HEK293T cells cotransfected with V5-SPLUNC1 and Myc-TRPC3
T2 construct: host or cells: HEK293T
T2 sequence (Q13507 74-921 limits assumed): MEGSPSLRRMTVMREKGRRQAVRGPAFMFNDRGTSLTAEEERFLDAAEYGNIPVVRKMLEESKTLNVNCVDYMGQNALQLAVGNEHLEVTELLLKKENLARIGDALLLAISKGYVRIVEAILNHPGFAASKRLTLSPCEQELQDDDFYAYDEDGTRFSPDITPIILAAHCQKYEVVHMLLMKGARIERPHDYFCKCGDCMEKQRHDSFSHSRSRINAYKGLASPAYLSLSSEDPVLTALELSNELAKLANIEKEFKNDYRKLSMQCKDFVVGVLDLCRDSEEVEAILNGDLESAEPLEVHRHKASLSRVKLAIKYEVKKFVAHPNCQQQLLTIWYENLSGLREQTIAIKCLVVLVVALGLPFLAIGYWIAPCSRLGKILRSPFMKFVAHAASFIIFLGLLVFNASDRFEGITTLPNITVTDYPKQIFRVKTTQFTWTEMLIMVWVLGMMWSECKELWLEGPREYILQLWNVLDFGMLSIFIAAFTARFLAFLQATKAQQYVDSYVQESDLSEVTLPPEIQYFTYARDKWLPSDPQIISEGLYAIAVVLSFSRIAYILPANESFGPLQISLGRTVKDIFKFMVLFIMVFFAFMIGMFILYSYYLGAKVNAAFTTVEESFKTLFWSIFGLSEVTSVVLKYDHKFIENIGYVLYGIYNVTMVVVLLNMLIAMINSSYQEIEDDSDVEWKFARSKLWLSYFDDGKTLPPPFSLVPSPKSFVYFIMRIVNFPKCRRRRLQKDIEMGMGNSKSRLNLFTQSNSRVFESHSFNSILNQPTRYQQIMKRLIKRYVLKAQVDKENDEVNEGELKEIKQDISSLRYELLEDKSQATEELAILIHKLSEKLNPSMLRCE
Protocol: (§1) DNA constructs: Yellow fluorescent protein (YFP) tagged human Orai1 and Myc tagged TRPC3 were gifts from Dr. Craig Montell (Addgene plasmid #25902) and Dr. Anjana Rao (Addgene plasmid #19756), respectively. HA tagged human Orai1 was a generous gift from Dr. Patrick G Hogan at La Jolla Institute for Allergy & Immunology. pcDNA3.1(+)-V5-SPLUNC1 was a generous gift from Dr. Colin D Bingle at the University of Sheffield.
(§2) For immunoprecipitation, cell lysates were collected at 48 h post-transfection in Pierce® IP lysis buffer in the presence of 1× protease inhibitor cocktail (PIC) (Roche). Cell lysates were pre-cleared with protein A/G agarose beads and then incubated with 1 μg of antibodies against HA (BioLegend) or V5 (Invitrogen) with protein A/G agarose beads on a rotator at 4° C. overnight. After three washes with IP lysis buffer, immunoprecipitated complexes were eluted in sample buffer (50 mM Tris-HCl [pH 6.8], 2% sodium dodecyl sulfate (SDS), 10% glycerol, 5% (v/v) β-mercaptoethanol (BME), 0.1% bromophenol blue) by heating the samples at 95° C. for 5 min, electrophoresed through SDS-polyacrylamide gels, and subjected to immunoblot analysis.

[2] = test system: myosin light chain (MLC) phosphorylation; assay: Immunoblot of phosphorylated myosin light chain in ASMCs; format: cell-based, human; conditions: basal and Ach-induced; pre-treatment with SPLUNC1
Protocol: Antibodies, immunoprecipitation, and immunoblot analysis: Rabbit anti-Orai1, anti-HA epitope (Santa Cruz), anti-GFP, anti-phospho-myosin light chain, anti-total myosin light chain, anti-GAPDH (glyceraldehyde-3-phosphate dehydrogenase) (Cell Signaling Technology); mouse anti-V5 epitope (Life Technologies), were purchased from commercial sources. To detect protein expression in total cell lysates, cells were lysed in Pierce® IP lysis buffer with 25 mM Tris-HCl pH 7.4, 150 mM NaCl, 1% NP-40, 1 mM EDTA, 5% glycerol, followed by SDS-polyacrylamide electrophoresis and immunoblot.

Human ASMCs = assay: Cell contraction assay (collagen gel); format: cell-based; conditions: pre-incubation with recombinant SPLUNC1; with or without Ach; 60 min
Protocol: Cell contraction assay: The cell contraction assay was performed using a standard commercially available kit (Cell Biolabs). Human ASMCs were harvested and re-suspended in DMEM, two parts of cells were mixed with eight parts of collagen gel lattice mixture and plated for 1 h at 37° C. After the gel solidified, 1 ml of medium was added and incubated for 48 h. Next the gels were released from the sides of wells, and the images were taken using a ChemiDoc™ MP imager (BioRad) at 0 and 1 h after adding indicated reagents. The changes of collagen gel surface areas were analyzed using ImageJ software and normalized to areas of gels at 0 time point.

Orai1 [3] = target: T1, Orai1; assay: Co-immunoprecipitation in HEK293T cell lysates (V5-SPLUNC1 / HA-Orai1); format: binding; parameters: expressed in transfected cells; host or cells: HEK293T; conditions: HEK293T cells cotransfected with V5-SPLUNC1 and HA-Orai1
Protocol: as §1, §2

T1 sequence (Q96D31 whole entry): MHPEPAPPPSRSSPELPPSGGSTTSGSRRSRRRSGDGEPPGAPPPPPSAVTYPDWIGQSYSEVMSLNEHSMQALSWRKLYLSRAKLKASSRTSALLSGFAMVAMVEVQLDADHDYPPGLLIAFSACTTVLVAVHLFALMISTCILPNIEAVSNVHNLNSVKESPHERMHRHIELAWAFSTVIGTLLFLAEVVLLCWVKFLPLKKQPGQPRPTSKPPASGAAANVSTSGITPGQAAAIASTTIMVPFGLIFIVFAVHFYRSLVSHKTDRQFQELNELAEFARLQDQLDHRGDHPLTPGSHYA

B1: SPLUNC1: Short palate, lung and nasal epithelium clone 1, recombinant full length protein (protein, listed as Homo sapiens)
chain: MFQTGGLIVFYGLLAQTMAQFGGLPVPLDQTLPLNVNPALPLSPTGLAGSLTNALSNGLLSGGLLGILENLPLLDILKPGGGTSGGLLGGLLGKVTSVIPGLNNIIDIKVTDPQLLELGLVQSPDGHRLYVTIPLGIKLQVNTPLVGASLLRLAVKLDITAEILAVRDKQERIHLVLGDCTHSPGSLQISLLDGLGPLPIQGLLDSLTGILNKVLPELVQGNVCPLVNEVLRGLDITLVHDIVNMLIHGLQFVIKV
decrease of plasma membrane Orai1 levels (Orai1 [1]): ~50%
co-immunoprecipitation with TRPC3 (TRPC3): but not an alternate Ca^2+ channel (TRPC3), could be co-immunoprecipitated; also recorded: does not interact with TRPC3
MLC phosphorylation [2]: decreased both basal and induced MLC phosphorylation; also recorded: suppressing myosin light chain (MLC) phosphorylation; also recorded: decreases MLC phosphorylation in dose dependent-manners
ASMC contraction in collagen matrix (decrease in gel surface area) (Human ASMCs): significantly reduced; also recorded: decreases airway smooth muscle (ASM) contractility
co-immunoprecipitation with Orai1 (Orai1 [3]): could be co-immunoprecipitated; also recorded: interacting with Orai1
